Results as given in US20240066142A1, “A UPAR (UROKINASE PLASMINOGEN ACTIVATOR RECEPTOR)-TARGETING CONJUGATE” (FLUOGUIDE A/S, priority 2021, published 2024).
Primed or numbered codes have the meaning given here. [ ]: non-standard residue; d: D form. Cha = N[C@@H](CC1CCCCC1)C(=O)O; IRDye800CW′ = not defined here; AEEA = NCCOCCOCC(=O)O

What was measured:
human uPAR = human uPAR (Homo sapiens, UniProt Q03405); experiment: SPR binding of conjugate or uPA to immobilized His-tagged recombinant human uPAR
Method: SPR was also applied to determine the KD-value of binding of the uPAR-binding conjugate to uPAR.
The uPAR-binding conjugates as well as the endogenous ligand uPA were analyzed in 2-fold dilution series from low to high concentration with a running buffer injection in between each injection. Injection of uPAR-binding conjugate or uPA (at a rate of 50 μL/minute) was performed for 120 seconds (association), and dissociation was assessed for 120 s (at a rate of 50 μL/minute). Running buffer was PBS supplemented with 0.01% Tween-20 and 50 μM EDTA).
Binding affinities were determined using the above described SPR-based approach, measuring binding affinities (KD) of the uPAR-targeting conjugates to immobilized human uPAR protein (the tumor target protein).

uPAR·uPA interaction = uPAR·uPA interaction (Homo sapiens, UniProt Q03405); experiment: SPR competition: inhibition of the uPAR·uPA interaction (immobilized human uPA, 2.5 nM uPAR); format: binding; settings: uPAR 2.5 nM pre-incubated 10 minutes with conjugate
Chain of uPAR·uPA interaction (Q03405 23-305): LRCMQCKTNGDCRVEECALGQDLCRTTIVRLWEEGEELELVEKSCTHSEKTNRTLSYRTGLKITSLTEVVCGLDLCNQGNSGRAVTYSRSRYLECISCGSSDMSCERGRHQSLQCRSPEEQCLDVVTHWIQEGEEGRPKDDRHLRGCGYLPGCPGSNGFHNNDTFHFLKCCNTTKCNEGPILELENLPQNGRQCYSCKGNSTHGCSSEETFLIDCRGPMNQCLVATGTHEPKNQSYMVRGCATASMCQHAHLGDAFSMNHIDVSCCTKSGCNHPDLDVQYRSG
Method: Surface plasmon resonance (SPR) was applied to determine the IC50-value of uPAR-targeting conjugate for its ability to inhibit the uPAR·uPA interaction. In brief, human recombinant uPA, which is the natural ligand for uPAR, was immobilized to the SPR sensor chip. Binding of uPAR at a concentration of 2.5 nM in the absence of UPAR-binding conjugate was examined, followed by analyses of a fixed uPAR concentration (2.5 nM) incubated with a 2-fold dilution series of uPAR-binding conjugate pre-incubated for 10 minutes at room temperature prior to injection. uPAR injection (at a rate of 50 μL/minute) was performed for 300 s (association), and dissociation was assessed for 500 s (at a rate of 50 μL/minute). The uPAR/uPAR-binding conjugate complex was injected from low to high concentration with a regeneration step followed by a buffer injection in between each injection. Regeneration was performed for 20 s by injection of 0.5 M NaCl+0.1 M Acetic acid at a 30 μL/min flow rate, followed by running buffer wash (running buffer: PBS supplemented with 0.01% Tween-20 and 50 μM EDTA).
From this type of SPR analysis, the IC50 values for uPAR-targeting conjugates were determined.
The top signal represents uPAR binding in the absence of uPAR-targeting conjugate.

[1] = biological target: recombinant human uPAR containing a His-tag (immobilized to a NTA chip) (human) (UniProt Q03405); experiment: SPR, His-tagged human uPAR on NTA chip, steady-state responses
Chain of recombinant human uPAR containing a His-tag (immobilized to a NTA chip) (human) (Q03405 23-305 limits assumed): as the sequence (Q03405 23-305) above

[2] = biological target: human uPAR (urokinase Plasminogen Activator Receptor), in solution at 2.5 nM in the competition SPR assay (human) (UniProt Q03405); experiment: SPR competition: 2.5 nM uPAR pre-incubated with dilution series of conjugate, injected over immobilised human uPA
Chain of human uPAR (urokinase Plasminogen Activator Receptor), in solution at 2.5 nM in the competition SPR assay (human) (Q03405 23-305 limits assumed): as the sequence (Q03405 23-305) above

`CC(C)C[C@H](NC(=O)[C@H](Cc1ccc(O)cc1)NC(=O)[C@@H](CCCNC(=N)N)NC(=O)[C@@H](CO)NC(=O)[C@H](Cc1ccccc1)NC(=O)[C@H](CC1CCCCC1)NC(=O)[C@H](CC(=O)O)NC(=O)COCCOCCNC(=O)COCCOCCNC(=O)[C@H](CCC(=O)O)NC(=O)[C@H](CCC(=O)O)NC(=O)CCCCCN1C(=CC=C2CCCC(C=CC3=[N+](CCCCS(=O)(=O)[O-])c4ccc(S(=O)(=O)O)cc4C3(C)C)=C2Oc2ccc(S(=O)(=O)O)cc2)C(C)(C)c2cc(S(=O)(=O)O)ccc21)C(=O)N[C@@H](Cc1c[nH]c2ccccc12)C(=O)N[C@@H](CO)C(=O)O` [Compound example 2, IRDye800CW-EE-020c-020c-DChaFsrYLWS-OH] was tested, and the kon (human uPAR; on-rate binding) was ≥ 4.6e+06 M⁻¹ s⁻¹.

In the case of “Compound example 1: uPAR-targeting conjugate based on the fluorophore ICG and the peptide AE105 (DXFSRYLWS; D-residues; non-natural residues; cyclised or stapled)”, the IC50 (uPAR·uPA interaction) is reported as 7 nM, the Kd (human uPAR; KD from steady state binding responses where Kon too fast) is reported as 2000 nM and the Kon (human uPAR; on-rate binding) is reported as ≥4.6e+06 M⁻¹ s⁻¹.

{IRDye800CW′}-EE[AEEA][AEEA]D[Cha]F[dS][dR]YLWS-OH was tested, and the Kd [1] was 325 nM and the IC50 [2] was 24 nM.
